From US20260042850A1 (LOCKBODY THERAPEUTICS, published 2026)
Numbering of substitutions follows the chain as printed. Names may count otherwise.

B1: MH9 (antibody, IgG4, V domains shown)
VH: QVQLVQSGAEVKKPGASVKVSCKASGYTFTSYTMHWVRQAPGQGLEWMGIINPSGGSTSYAQKFQGRVTMTRDTSTSTVYMELSSLRSEDTAVYYCARQEITTEFDYWGQGTLVTVSS
VL: EIVLTQSPGTLSLSPGERATLSCRASQSVSSYAQSYLHWYQQKPGQAPRLLIYRGSTRETGIPDRFSGSGSGTDFTLTISRLEPEDFAVYYCQQYGSSPLTFGGGTKVEIK
B2: MH8 (antibody, IgG4, V domains shown)
VH: B1 VH
VL: B1 VL with Y95S
B3: h224G11 (humanized 224G11) (antibody, human IgG4, V domains shown)
VH: QVQLVQSGAEVKKPGASVKVSCKASGYIFTAYTMHWVRQAPGQGLEWMGWIKPNNGLANYAQKFQGRVTMTRDTSISTAYMELSRLRSDDTAVYYCARSEITTEFDYWGQGTLVTVSS
VL: DIVMTQSPDSLAVSLGERATINCKSSESVDSYANSFLHWYQQKPGQPPKLLIYRASTRESGVPDRFSGSGSGTDFTLTISSLQAEDVAVYYCQQSKEDPLTFGGGTKVEIK
notes: also called Humanized h224G11; 224G11 IgG4(S228P)
B4: MH7-2 (antibody, human IgG4, V domains shown)
VH: B1 VH
VL: B1 VL with Q34N, Y95S, G96K, S97E
B5: 04E10 (antibody, IgG4, V domains shown)
VH: B3 VH with A31S, L57S, N59S, I76T, A79V, R85S, D89E, F105E
VL: B1 VL with S30D, Q34N, T60S, Y95S, G96K, S98E

target: T1, human C-MET His tagged, monomeric (human, UniProt P08581 25-932); test: SPR Biacore
T1 construct: also called monomeric human C-MET; biotinylated human C-MET-His
T1 sequence (P08581 25-932): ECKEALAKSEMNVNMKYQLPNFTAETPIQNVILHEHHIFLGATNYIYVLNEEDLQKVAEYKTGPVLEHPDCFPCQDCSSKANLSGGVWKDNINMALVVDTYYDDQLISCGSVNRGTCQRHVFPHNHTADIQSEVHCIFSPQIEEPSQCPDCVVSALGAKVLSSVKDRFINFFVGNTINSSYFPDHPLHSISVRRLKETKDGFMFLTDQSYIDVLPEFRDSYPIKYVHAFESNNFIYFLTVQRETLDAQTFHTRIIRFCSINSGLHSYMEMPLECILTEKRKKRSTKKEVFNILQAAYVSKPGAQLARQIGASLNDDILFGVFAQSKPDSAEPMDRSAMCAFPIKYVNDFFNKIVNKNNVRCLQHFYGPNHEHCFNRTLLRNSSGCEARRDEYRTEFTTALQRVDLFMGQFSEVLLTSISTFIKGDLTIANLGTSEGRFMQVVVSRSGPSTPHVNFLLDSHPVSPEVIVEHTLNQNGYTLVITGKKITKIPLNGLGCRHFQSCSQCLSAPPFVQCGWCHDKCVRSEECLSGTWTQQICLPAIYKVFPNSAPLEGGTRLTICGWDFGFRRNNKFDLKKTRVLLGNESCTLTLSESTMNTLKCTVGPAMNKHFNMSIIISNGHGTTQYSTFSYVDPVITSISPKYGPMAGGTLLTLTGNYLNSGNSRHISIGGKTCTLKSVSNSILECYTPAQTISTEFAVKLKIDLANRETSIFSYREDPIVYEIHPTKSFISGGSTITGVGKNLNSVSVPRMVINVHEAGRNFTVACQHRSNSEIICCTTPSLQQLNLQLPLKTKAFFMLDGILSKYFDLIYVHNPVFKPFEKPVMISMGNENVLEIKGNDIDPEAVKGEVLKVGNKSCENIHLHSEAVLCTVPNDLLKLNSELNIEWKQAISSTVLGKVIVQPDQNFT
Protocol: (§1) Affinity (KD) of purified IgGs was determined via SPR with antigen in-solution on a Biacore® 3000 (GE). A mouse anti-human antibody (CH1 specific) was immobilized on a CM5 Sensor Chip to a level of 2000 RU in acetate buffer at pH 4.5 using amine coupling following the Wizard instructions for two channels. One channel was used for background signal correction. The standard running buffer HBS-EP pH 7.4 was used. Regeneration was performed with a single injection of 10 μl of 10 mM Glycine at pH 1.5 at 20 μl/minute. IgG samples were injected for 2 minutes at 50 nM at 30 μl/min followed by and off-rate of 60 seconds. The monomeric antigen (human C-MET His tagged or cynomolgus monkey C-MET His tag) was injected in two fold serial dilutions from 100 nM down to 6 nM, for 2 minutes at 30 μl/min followed by an off-rate of 300 seconds. The obtained sensorgrams were analysed using the Biacore® 3000 evaluation (BIAevaluation) software. The KD was calculated by simultaneous fitting of the association and dissociation phases to a 1:1 Langmuir binding model.

Binder	fold loss of KD against MH7 [fold]
B1	10 to 20
B2	10 to 20

target: T2, cynomolgus monkey C-MET His tag, monomeric (cynomolgus monkey, UniProt A0M8R7 25-932 (Papio anubis entry)); test: SPR Biacore
T2 construct: also called monomeric cyno C-MET; cyCMET
T2 sequence (A0M8R7 25-932 S170N/I621T): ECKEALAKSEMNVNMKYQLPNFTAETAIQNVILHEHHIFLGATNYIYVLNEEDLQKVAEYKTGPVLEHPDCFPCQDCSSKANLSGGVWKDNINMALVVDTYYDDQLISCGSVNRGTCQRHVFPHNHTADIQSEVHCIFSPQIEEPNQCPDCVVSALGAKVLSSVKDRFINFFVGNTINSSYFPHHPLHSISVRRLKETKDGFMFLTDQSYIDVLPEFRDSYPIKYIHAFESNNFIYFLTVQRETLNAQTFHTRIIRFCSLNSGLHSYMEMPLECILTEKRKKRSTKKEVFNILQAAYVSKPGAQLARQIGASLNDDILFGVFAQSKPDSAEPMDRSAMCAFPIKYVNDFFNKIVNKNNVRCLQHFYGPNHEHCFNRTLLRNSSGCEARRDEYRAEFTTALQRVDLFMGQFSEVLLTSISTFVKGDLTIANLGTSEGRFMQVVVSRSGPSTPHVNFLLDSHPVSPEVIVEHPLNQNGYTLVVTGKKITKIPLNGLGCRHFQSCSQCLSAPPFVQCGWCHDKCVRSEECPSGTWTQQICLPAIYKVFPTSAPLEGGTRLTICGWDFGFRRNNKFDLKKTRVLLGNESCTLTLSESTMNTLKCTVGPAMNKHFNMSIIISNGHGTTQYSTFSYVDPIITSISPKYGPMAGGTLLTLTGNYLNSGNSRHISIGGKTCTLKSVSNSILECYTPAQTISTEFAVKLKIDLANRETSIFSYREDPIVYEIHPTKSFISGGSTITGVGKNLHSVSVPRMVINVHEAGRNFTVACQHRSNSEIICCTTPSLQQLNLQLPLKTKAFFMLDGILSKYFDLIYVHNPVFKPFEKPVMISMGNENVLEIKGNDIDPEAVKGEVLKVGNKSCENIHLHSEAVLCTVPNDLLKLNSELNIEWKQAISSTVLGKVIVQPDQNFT
Protocol: as §1

Binder	fold loss of KD against MH7 [fold]
B1	10 to 20
B2	10 to 20

target: T3, Insulin; test: polyreactivity ELISA on insulin; design: scale not given here
T3 construct: Coated surface of the polyreactivity (development risk) ELISA
T3 sequence (P01308 25-54, chain 1 of 2): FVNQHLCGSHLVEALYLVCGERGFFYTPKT
T3 sequence (P01308 90-110, chain 2 of 2): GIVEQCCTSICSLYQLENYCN

Binder	reactivity score
B3	1
B4	1

target: T4, human C-MET on stably transfected CHO-K1 cells (human, UniProt P08581 25-1390); test: flow cytometry, C-MET CHO-K1 cells
T4 construct: also called hucMET; human C-MET+ CHO-K1 cells
T4 sequence (P08581 25-1390 limits assumed): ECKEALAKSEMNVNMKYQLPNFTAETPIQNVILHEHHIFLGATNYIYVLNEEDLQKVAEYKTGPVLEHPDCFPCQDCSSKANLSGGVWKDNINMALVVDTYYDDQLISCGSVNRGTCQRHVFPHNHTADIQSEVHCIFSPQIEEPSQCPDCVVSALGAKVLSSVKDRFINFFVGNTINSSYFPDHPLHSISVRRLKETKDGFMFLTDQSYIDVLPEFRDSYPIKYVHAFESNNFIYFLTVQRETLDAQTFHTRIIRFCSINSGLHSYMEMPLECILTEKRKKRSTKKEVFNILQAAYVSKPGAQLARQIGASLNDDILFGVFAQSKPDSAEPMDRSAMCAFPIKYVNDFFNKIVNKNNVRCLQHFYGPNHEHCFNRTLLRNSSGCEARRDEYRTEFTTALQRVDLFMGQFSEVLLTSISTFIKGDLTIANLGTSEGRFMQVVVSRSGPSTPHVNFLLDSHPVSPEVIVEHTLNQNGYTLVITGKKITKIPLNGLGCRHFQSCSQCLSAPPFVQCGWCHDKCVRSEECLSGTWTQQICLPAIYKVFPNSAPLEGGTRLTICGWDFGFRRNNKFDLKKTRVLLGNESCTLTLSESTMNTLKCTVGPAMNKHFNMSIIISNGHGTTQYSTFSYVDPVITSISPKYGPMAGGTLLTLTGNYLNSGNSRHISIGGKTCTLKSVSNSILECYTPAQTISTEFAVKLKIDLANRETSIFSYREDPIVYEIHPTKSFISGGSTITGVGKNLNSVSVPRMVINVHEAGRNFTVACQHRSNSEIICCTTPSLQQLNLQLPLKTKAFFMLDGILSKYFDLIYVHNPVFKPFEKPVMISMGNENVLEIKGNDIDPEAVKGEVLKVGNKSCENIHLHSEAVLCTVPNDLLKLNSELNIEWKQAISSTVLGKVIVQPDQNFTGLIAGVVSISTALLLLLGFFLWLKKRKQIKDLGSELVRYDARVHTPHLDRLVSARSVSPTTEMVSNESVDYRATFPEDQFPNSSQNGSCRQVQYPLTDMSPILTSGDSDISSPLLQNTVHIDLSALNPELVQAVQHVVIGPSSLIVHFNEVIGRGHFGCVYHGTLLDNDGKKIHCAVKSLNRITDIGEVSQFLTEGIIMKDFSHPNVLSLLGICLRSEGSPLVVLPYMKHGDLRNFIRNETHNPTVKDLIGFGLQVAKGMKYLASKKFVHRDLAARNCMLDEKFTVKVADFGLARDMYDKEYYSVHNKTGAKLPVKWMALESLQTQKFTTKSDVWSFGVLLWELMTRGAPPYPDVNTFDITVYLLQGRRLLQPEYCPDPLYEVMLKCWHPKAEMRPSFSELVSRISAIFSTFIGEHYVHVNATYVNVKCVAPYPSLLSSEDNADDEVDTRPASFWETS
Protocol: (§2) Purified IgGs were tested in FACs for binding to human and cyno C-MET expressed on CHO-K1 stable cell lines and CHO-K1 wild-type cells. The IgG samples were titrated in three-fold serial dilutions starting at 500 nM to 0.08 nM. Binding of IgGs was detected with a mouse anti-human IgG conjugated to FITC. Results were analyzed by examining the Mean Fluorescence Intensity (MFI) of 10000 cells per sample in the BL-1 channel detector of a flow cytometer (Attune™ NxT Acoustic Focusing Cytometer, Invitrogen/ThermoFisher Scientific).
(§3) Antibodies to C-MET were analysed for concentration-dependent binding at the cell surface via flow cytometry. CHO-K1 cells were stably transfected with either human or cyno C-MET full-length cDNAs. Anti-C-MET IgGs and an isotype control IgG4(S228P) were then all tested in IgG4(S228P) format, over a concentration range of 500-0.08 nM for binding to human (FIG. 5A) and cyno (FIG. 5B) CHO-K1 cells.

Binder	maximum MFI, fold over Isotype IgG4 background [fold]
B5	> 10
B3	> 10
B4	> 10
B1	> 10
B2	> 10

target: T5, cynomolgus monkey C-MET on stably transfected CHO-K1 cells (cynomolgus monkey, UniProt A0M8R7 25-1381 (Papio anubis entry)); test: flow cytometry, C-MET CHO-K1 cells
T5 construct: also called cycMET; cyno C-MET+ CHO-K1 cells
T5 sequence (A0M8R7 25-1381 S170N/I621T limits assumed): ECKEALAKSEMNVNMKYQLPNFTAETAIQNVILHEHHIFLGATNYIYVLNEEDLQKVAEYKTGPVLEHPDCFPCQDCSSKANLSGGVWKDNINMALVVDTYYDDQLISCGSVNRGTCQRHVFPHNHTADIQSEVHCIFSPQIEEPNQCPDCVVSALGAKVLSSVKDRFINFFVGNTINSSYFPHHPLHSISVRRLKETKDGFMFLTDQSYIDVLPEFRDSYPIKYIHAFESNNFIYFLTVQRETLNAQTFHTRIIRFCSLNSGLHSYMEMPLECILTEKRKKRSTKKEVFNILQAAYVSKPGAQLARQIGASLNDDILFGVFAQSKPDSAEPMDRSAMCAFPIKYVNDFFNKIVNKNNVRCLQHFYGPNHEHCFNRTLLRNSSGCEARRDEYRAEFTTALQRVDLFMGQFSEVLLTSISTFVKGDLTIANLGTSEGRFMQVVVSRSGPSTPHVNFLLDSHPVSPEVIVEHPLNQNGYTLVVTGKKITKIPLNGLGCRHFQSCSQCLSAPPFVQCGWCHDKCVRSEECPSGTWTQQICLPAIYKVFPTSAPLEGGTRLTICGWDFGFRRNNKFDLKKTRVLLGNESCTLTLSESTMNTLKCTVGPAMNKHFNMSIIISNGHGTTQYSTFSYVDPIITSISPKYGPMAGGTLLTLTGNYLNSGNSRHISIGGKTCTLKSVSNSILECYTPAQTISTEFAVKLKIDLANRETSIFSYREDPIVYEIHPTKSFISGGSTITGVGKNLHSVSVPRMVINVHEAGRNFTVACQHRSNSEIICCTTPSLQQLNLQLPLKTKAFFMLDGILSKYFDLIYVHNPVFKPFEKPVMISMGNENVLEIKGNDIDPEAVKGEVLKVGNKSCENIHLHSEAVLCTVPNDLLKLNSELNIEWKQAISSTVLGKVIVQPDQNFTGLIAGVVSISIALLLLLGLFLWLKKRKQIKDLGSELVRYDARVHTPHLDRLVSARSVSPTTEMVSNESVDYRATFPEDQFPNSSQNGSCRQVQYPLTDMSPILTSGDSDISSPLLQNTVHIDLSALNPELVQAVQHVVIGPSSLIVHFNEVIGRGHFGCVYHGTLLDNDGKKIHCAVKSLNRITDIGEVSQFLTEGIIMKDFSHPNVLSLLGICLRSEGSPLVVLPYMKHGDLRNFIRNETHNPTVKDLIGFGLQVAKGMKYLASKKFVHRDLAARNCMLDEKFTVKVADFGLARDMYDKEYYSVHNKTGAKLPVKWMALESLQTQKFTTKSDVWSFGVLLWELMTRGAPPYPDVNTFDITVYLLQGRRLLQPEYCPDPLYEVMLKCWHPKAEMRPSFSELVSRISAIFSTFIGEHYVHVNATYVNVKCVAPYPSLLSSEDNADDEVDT
Protocol: as §2, §3

Binder	maximum MFI, fold over Isotype IgG4 background [fold]
B5	> 10
B3	> 10
B4	> 10
B1	> 10
B2	> 10

target: T4, human C-MET on stably transfected …; test: flow cytometry, C-MET CHO-K1 cells; remark: another data set of the same source
Protocol: as §2

Binder	EC50 [nM]
B5	9.66
B3	6.83
B1	1.23
B2	1.24

target: T5, cynomolgus monkey C-MET on stably …; test: flow cytometry, C-MET CHO-K1 cells; remark: another data set of the same source
Protocol: as §2

Binder	EC50 [nM]
B5	2.94
B3	0.82
B1	0.65
B2	0.57

target: T1, human C-MET His tagged, monomeric; test: SPR Biacore, IgG captured, monomeric C-MET-His analyte
Protocol: as §1

Binder	Kd [nM]	koff [s⁻¹]	kon [M⁻¹ s⁻¹]
B5	1.6	5e-05	31000
B3	0.47	4.2e-05	90000
B4	2.12	0.000198	93200
B1	6.6	0.00039	59000
B2	2.2	0.00015	66000

target: T2, cynomolgus monkey C-MET His tag, …; test: as above
Protocol: as §1

Binder	Kd [nM]	koff [s⁻¹]	kon [M⁻¹ s⁻¹]
B5	2.2	0.00011	49000
B3	0.46	0.00011	250000
B4	0.87	0.000159	183000
B1	4.3	0.00048	110000
B2	1.3	0.00021	160000

target: T6, cynomolgus monkey C-MET human Fc tagged recombinant protein (cynomolgus monkey, UniProt A0M8R7 25-932 (Papio anubis entry), limits assumed); test: direct titration ELISA on coated cyno C-MET-Fc, IgG4(S228P), OD 450 nm
T6 construct: also called cyno C-MET-Fc; cyCMET
T6 sequence (A0M8R7 25-932 S170N/I621T limits assumed): as the sequence (A0M8R7 25-932 S170N/I621T) above
Description: (§4) FIG. 6A-FIG. 6B. Direct titration ELISA for IgG binding to human and cyno C-MET-Fc proteins. Humanized h224G11, Grafted clone (Graft) and clones 08G07, MH7, MH7-1, MH7-2, MH7-3 in human IgG4(S228P) format were titrated (in nM) in a direct binding ELISA against human (FIG. 6A) and cyno (FIG. 6B) C-MET-Fc proteins.
(§5) Binding and cross-reactivity of the lead panel to the recombinant proteins was initially assessed by binding ELISA. The human C-MET human Fc tagged recombinant protein and the cynomolgus monkey C-MET human Fc tagged recombinant protein were coated to the surface of MaxiSorp™ flat-bottom 96 well plate at 1 μg/ml. The purified IgG samples were titrated in two fold serial dilutions starting from 500 nM to 0.98 nM and allowed to bind to the coated antigens. The Fabs were detected using mouse anti-c-myc antibody followed by donkey anti-mouse IgG conjugated to horseradish peroxidase. The IgGs were detected using the mouse anti-human IgG conjugated to horseradish peroxidase. Binding signals were visualized with 3,3′,5,5′-Tetramethylbenzidine Substrate Solution (TMB) and the absorbance measured at 450 nm. IgG binding analysis via ELISA on negatively charged biomolecular surfaces to calculate off-target binding and PK risk were performed as previously described (see Avery et al., 2018, MAbs 10 (2), 244-255).

Binder	EC50 (read off the curve) [nM]
B3	~0.2
B4	~0.2

target: T7, human C-MET human Fc tagged recombinant protein (human, UniProt P08581 25-932); test: direct titration ELISA on coated human C-MET-Fc, IgG4(S228P), OD 450 nm
T7 construct: also called human C-MET-Fc; huCMET
T7 sequence (P08581 25-932 limits assumed): as the sequence (P08581 25-932) above
Description: as §4, §5

Binder	EC50 (read off the curve) [nM]
B3	~0.3
B4	~0.3

target: T5, cynomolgus monkey C-MET on stably …; test: flow cytometry on cyno C-MET-transfected CHO-K1 cells, IgG4(S228P), MFI
Protocol: FIG. 8A-FIG. 8C. Flow cytometric binding to human and cyno C-MET+ CHO-K1 cells for library-derived and primary designer leads. Humanized h224G11, Grafted clone (Graft) and clones 08G07, MH7, MH7-1, MH7-2, MH7-3 in human IgG4(S228P) format were examined for specific binding on human C-MET-transfected (FIG. 8A), cyno C-MET-transfected (FIG. 8B) and untransfected (FIG. 8C) CHO-K1 cells. IgGs were tested at concentrations ranging from 500-0.08 nM. Concentration-dependent binding was observed against both human and cyno cell lines for all C-MET-specific antibodies but not isotype control IgG4.
as §2

Binder	EC50 (read off the curve) [nM]
B3	~0.7
B4	~0.5

target: T1, human C-MET His tagged, monomeric; test: Alphascreen epitope competition in solution: varied IgG4(S228P) against 224G11 IgG4(S228P) binding to biotinylated human C-MET, CPS
Protocol: (§6) FIG. 4. Epitope competition analysis of IgG4(S228P) proteins in Alphascreen. Anti-C-MET IgG4(S228P) clones were applied in an epitope competition assay using Alphascreen technology. In this assay, library-derived and designer IgGs were analysed for their retention of the parental 224G11 epitope by competing for 224G11 IgG4(S228P) binding to human C-MET protein, in solution.
(§7) The AlphaScreen assay (Perkin Elmer) was performed in a 25 μl final volume in 384-well white microtiter plates (Greiner). The reaction buffer contained 1×PBS pH 7.3 (Oxoid, Cat. nr. BR0014G) and 0.05% (v/v) Tween® 20 (Sigma, Cat. nr. P9416). Purified IgG samples were titrated in three fold serial dilutions starting at 50 nM final concentration and incubated with biotinylated human C-MET-His (Acrobiosystems) at 1 nM final concentration for 20 minutes at room temperature. The parental IgG and the anti-human IgG4(S228P) Acceptor beads at were added and the mix was incubated for 1 hour at room temperature. Followed by addition of the Streptavidin Donor beads and incubation for 30 minutes at room temperature. The emission of light was measured in the EnVision multilabel plate reader (Perkin Elmer) and analysed using the EnVision manager software. Values were reported as Counts Per Second (CPS) and corrected for crosstalk.

Binder	IC50 (read off the curve) [nM]
B5	~2

target: T1, human C-MET His tagged, monomeric; test: Alphascreen epitope competition in solution: varied IgG4(S228P) against 224G11 IgG4(S228P) binding to biotinylated human C-MET, CPS (crosstalk-corrected)
Protocol: as §6, with “7.” for “4.”, “Anti-Humanized h224G11, Grafted clone (Graft) and clones 08G07, MH7, MH7-1, MH7-2, MH7-3 in human” for “Anti-C-MET”, “format” for “clones”, “titrated (in nM)” for “applied”
as §7, with “crosstalk. […]” for “crosstalk.”

Binder	IC50 (read off the curve) [nM]
B3	~0.2
